Measurements as given in patent US10829540 (AstraZeneca / MedImmune, dated 2020).
Blank lines part the entries; values can stand above or below the binder they belong to.

Key:
[1] = target: T1, human P2X4 (human, UniProt Q99571 1-388); assay: cell-based or functional assay
T1 sequence (looked up): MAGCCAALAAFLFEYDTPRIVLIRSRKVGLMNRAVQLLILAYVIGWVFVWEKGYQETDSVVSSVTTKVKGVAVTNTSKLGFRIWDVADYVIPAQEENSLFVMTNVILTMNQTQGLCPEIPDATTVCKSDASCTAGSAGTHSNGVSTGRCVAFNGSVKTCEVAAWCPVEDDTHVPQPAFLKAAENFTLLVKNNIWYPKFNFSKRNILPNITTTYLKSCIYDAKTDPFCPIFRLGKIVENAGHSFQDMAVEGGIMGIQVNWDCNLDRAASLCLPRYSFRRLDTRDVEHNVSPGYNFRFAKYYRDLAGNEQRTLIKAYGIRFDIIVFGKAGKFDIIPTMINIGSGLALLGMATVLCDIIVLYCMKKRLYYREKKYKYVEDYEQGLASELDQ

[2] = target: T1, human P2X4; assay: cell-based or functional assay; remark: listed apart in the source

IC50 (nM), inhibition of human P2X4 currents in electrophysiology [1]: 19.6 nM
B1: Antibody 1 (antibody, V domains shown)
VH: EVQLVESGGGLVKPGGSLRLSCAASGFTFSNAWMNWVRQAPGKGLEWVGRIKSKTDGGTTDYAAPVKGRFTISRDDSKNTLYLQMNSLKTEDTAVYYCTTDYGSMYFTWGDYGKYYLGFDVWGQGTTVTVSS
VL: SYVLTQPPSVSVSPGQTATITCSGDTLPQRYAYWYQQKPGQAPILLIYKDSERPSGIPDRFSGSSSGTTVALTISGVQAEDEADYYCQSTDTSGVVFGGGTKVTVL

IC50, inhibition of human P2X4 currents in electrophysiology [2]: 3.8 nM
IC50 (nM), inhibition of human P2X4 currents in electrophysiology [1]: 3.9 nM
B2: Antibody 4 (antibody, V domains shown)
VH: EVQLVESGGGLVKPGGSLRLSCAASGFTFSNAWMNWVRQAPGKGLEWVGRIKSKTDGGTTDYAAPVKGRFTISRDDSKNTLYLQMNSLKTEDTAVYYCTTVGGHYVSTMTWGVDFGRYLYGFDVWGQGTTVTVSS
VL: QSVLTQPPSVSLSPGQTARITCSGDVLSKQFGYWYQQKPGQAPVVVIYNDSERPSGIPERFSGSSSGTTVTLTITGVQAEDEADYYCQSADSSGTVLFGGGTKLTVL

IC50 (nM), inhibition of human P2X4 currents in electrophysiology [1]: 50 nM
B3: Antibody 3 (antibody, V domains shown)
VH: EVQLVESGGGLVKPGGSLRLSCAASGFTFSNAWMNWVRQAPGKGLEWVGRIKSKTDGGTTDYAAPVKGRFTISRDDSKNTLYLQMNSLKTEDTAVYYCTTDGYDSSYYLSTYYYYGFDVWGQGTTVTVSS
VL: SSELTQDPAASVALGQTVTITCQGDSLRSYYASWYQQKPGQAPVLVFYGKNIRPSGIPDRFSGSDSRDTASLTITGAQADDEADYYCNSRDTSGNVVFGGGTKVTVL
